In series [1] the target is T1, OsGID1 (Oryza sativa, UniProt Q6L545).
T1 construct: gene GID1; recombinant, purified
T1 sequence (Q6L545 1-354): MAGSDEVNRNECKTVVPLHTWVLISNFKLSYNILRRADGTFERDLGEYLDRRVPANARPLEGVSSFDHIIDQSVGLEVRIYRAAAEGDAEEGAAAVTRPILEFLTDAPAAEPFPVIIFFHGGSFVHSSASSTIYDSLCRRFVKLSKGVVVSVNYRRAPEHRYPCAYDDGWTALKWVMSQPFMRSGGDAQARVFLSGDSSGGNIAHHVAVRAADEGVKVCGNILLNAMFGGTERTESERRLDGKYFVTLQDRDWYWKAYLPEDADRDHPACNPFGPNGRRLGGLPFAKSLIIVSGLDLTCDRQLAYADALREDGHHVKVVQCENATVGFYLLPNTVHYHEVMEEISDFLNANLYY
Nature of the series: (method not stated for the binary complex). The class given is binding. To be noted: read-out: Kb (converted).

Series [2] concerns the molecule itself. Briefly: SEC; each protein chromatographed alone on Superdex 200 10/300 GL, 20 mM sodium phosphate (pH 7.5), 150 mM NaCl, 2 mM β-ME, 0.1 mM GA3; size against molecular weight standards. Background: In gel filtration, larger molecules generally elute earlier.
The target of series [3] is T2, Trx-OsGID1, used as the Trx-OsGID1/GA3 complex (rice (Oryza sativa), UniProt Q6L545 1-354).
T2 construct: Gibberellin receptor GID1 of rice (Oryza sativa); GA3 (0.1 mM) was present in the gel filtration; also called Trx-GID1/GA3; source: recombinant, purified
T2 sequence (looked up): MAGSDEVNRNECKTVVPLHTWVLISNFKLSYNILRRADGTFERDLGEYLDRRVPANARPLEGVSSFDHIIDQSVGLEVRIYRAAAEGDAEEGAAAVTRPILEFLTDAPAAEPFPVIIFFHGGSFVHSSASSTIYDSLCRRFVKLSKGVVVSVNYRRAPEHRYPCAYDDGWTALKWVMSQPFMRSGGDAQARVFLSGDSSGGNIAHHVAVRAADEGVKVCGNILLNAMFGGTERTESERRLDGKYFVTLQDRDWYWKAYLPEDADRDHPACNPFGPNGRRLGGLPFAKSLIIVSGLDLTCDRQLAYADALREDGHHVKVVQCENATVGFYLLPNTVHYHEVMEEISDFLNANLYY
Nature of the series: SEC; purified Trx-OsGID1 and a Trx-SLR1 truncation mutant incubated together at 4 °C for 30 min with 10^-4 M GA3; Superdex 200 10/300 GL in 20 mM sodium phosphate (pH 7.5), 150 mM NaCl, 2 mM β-ME, 0.1 mM GA3; fractions on SDS-PAGE. To be noted: both partners purified.

In series [4] the target is T3, OsGID1 (rice gibberellin receptor GID1), Trx-free, used as the OsGID1/GA3 complex (rice (Oryza sativa), UniProt Q6L545 1-354).
T3 construct: Gibberellin receptor GID1 of rice (Oryza sativa); theoretical MW of the dimer printed as 79.2 kDa; The printed mass (39.6 kDa a monomer) fits the whole protein; source: recombinant, purified
T3 sequence (looked up): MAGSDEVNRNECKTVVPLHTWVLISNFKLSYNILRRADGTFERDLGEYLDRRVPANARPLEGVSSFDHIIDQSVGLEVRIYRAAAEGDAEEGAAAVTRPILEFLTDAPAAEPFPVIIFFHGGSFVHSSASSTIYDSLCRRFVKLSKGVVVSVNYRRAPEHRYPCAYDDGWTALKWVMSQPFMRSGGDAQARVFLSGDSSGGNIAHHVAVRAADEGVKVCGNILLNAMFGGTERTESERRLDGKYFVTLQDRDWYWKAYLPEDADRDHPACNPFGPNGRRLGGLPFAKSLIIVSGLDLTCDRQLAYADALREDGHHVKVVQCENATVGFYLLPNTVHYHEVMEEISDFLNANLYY
Briefly: ITC; 10 μl aliquants of 400 μM OsGID1/GA3 into 1.4482 ml of 50 μM SLR1 variant, 30 °C, 20 mM sodium phosphate (pH 7.5), 150 mM NaCl, 2.0 mM β-ME, 0.1 mM GA3. The note with it: both partners purified. A general note: Isothermal titration calorimetry measures the heat released or taken up as one component is titrated into another.

With `C=C1C[C@]23C[C@@]1(O)CC[C@H]2[C@@]12C=C[C@H](O)[C@@](C)(C(=O)O1)[C@H]2[C@@H]3C(=O)O` [GA3], in series [1], the Kd was 3570 nM.
For `C=C1C[C@]23C[C@H]1CC[C@H]2[C@@]12C=C[C@H](O)[C@@](C)(C(=O)O1)[C@H]2[C@@H]3C(=O)O` [GA7], in series [1], the Kd is 238 nM.
On the same count and under the same terms, with `C=C1C[C@]23C[C@@]1(O)CC[C@H]2[C@@]12CC[C@H](O)[C@@](C)(C(=O)O1)[C@H]2[C@@H]3C(=O)O` [GA1] the figure was 1920 nM; with `C=C1C[C@]23C[C@H]1CC[C@H]2[C@@]12CC[C@H](O)[C@@](C)(C(=O)O1)[C@H]2[C@@H]3C(=O)O` [GA4], 192 nM.

B1: Trx-SLR1(M28-A112) (domain or fragment, rice (Oryza sativa), UniProt Q7G7J6 28-112, looked up)
chain: MAGAAGEEEDVDELLAALGYKVRSSDMADVAQKLEQLEMAMGMGGVSAPGAADDGFVSHLATDTVHYNPSDLSSWVESMLSELNA
notes: DELLA protein SLR1 of rice (Oryza sativa), residues M28-A112; theoretical monomeric MW of the fusion 29.3 kDa; Thioredoxin-hexahistidine fusion from the vector pDEST-trx; source: E. coli, purified (HiTrap Chelating, Superdex 200); not shown: Trx, N-terminal, kept; His6, N-terminal, kept
Take B1: the “stoichiometry N” value in series [2] came out at 2; in series [3], 1.

B2: Trx-SLR1(M1-E104) (domain or fragment, rice (Oryza sativa), UniProt Q7G7J6 1-104, looked up)
chain: MKREYQEAGGSSGGGSSADMGSCKDKVMAGAAGEEEDVDELLAALGYKVRSSDMADVAQKLEQLEMAMGMGGVSAPGAADDGFVSHLATDTVHYNPSDLSSWVE
notes: DELLA protein SLR1 of rice (Oryza sativa), residues M1-E104; Thioredoxin-hexahistidine fusion from the vector pDEST-trx; source: E. coli, purified (HiTrap Chelating, Superdex 200); not shown: Trx, N-terminal, kept; His6, N-terminal, kept
Take B2: the “stoichiometry N” value in series [2] was 2.

B3: SLR1(M28-A112) ΔSPACE(G69-F83) (domain or fragment, rice (Oryza sativa), UniProt Q7G7J6 28-112, looked up)
chain: MAGAAGEEEDVDELLAALGYKVRSSDMADVAQKLEQLEMAMVSHLATDTVHYNPSDLSSWVESMLSELNA
notes: DELLA protein SLR1 of rice (Oryza sativa), residues M28-A112 with G69-F83 deleted; Named without Trx in the ITC experiments; removal of the tag is told in general in the methods; also called SLR(M28-A112)ΔSPACE; source: E. coli, purified (HiTrap Chelating, Superdex 200; thrombin, HiTrap Chelating, Superdex 75); not shown: Trx, N-terminal, cleaved; His6, N-terminal, cleaved
In series [4], B3 gave a Ka of 390000 M⁻¹.

B4: SLR1(M1-H327) (domain or fragment, rice (Oryza sativa), UniProt Q7G7J6 1-327, looked up)
chain: MKREYQEAGGSSGGGSSADMGSCKDKVMAGAAGEEEDVDELLAALGYKVRSSDMADVAQKLEQLEMAMGMGGVSAPGAADDGFVSHLATDTVHYNPSDLSSWVESMLSELNAPLPPIPPAPPAARHASTSSTVTGGGGSGFFELPAAADSSSSTYALRPISLPVVATADPSAADSARDTKRMRTGGGSTSSSSSSSSSLGGGASRGSVVEAAPPATQGAAAANAPAVPVVVVDTQEAGIRLVHALLACAEAVQQENFAAAEALVKQIPTLAASQGGAMRKVAAYFGEALARRVYRFRPADSTLLDAAFADLLHAHFYESCPYLKFAH
notes: DELLA protein SLR1 of rice (Oryza sativa), residues M1-H327; Named without Trx in the ITC experiments; removal of the tag is told in general in the methods; also called SLR(M1-H327); source: E. coli, purified (HiTrap Chelating, Superdex 200; thrombin, HiTrap Chelating, Superdex 75); not shown: Trx, N-terminal, cleaved; His6, N-terminal, cleaved
B4 registered a Ka in series [4] of 2e+06 M⁻¹.

B5: Trx-SLR1(M1-L110) (domain or fragment, rice (Oryza sativa), UniProt Q7G7J6 1-110, looked up)
chain: MKREYQEAGGSSGGGSSADMGSCKDKVMAGAAGEEEDVDELLAALGYKVRSSDMADVAQKLEQLEMAMGMGGVSAPGAADDGFVSHLATDTVHYNPSDLSSWVESMLSEL
notes: DELLA protein SLR1 of rice (Oryza sativa), residues M1-L110; Thioredoxin-hexahistidine fusion from the vector pDEST-trx; source: E. coli, purified (HiTrap Chelating, Superdex 200); not shown: Trx, N-terminal, kept; His6, N-terminal, kept
Take B5: the binding result in series [2] and in series [3] was “binds” throughout.

B6: SLR1(M1-A172) (domain or fragment, rice (Oryza sativa), UniProt Q7G7J6 1-172, looked up)
chain: MKREYQEAGGSSGGGSSADMGSCKDKVMAGAAGEEEDVDELLAALGYKVRSSDMADVAQKLEQLEMAMGMGGVSAPGAADDGFVSHLATDTVHYNPSDLSSWVESMLSELNAPLPPIPPAPPAARHASTSSTVTGGGGSGFFELPAAADSSSSTYALRPISLPVVATADPSA
notes: DELLA protein SLR1 of rice (Oryza sativa), residues M1-A172; Named without Trx in the ITC experiments; removal of the tag is told in general in the methods; also called SLR(M1-A172); source: E. coli, purified (HiTrap Chelating, Superdex 200; thrombin, HiTrap Chelating, Superdex 75); not shown: Trx, N-terminal, cleaved; His6, N-terminal, cleaved
In series [4], B6 came in with a Ka of 2.8e+07 M⁻¹.

Usually stoichiometry N stands for a count of units in the complex or per binding partner.

(Values after publication PMC6286387, “Physical and thermodynamic characterization of the rice gibberellin receptor/gibberellin/DELLA protein complex” (Scientific Reports, 2018).)
